# Reference: US20160130303
# Substitutions are numbered along the chain they refer to. In names and notes the source's numbering stands.
# T1: PGS-1, YRRAAVPPSPSLSRHSSPSQS(p)EDEEE
# T1 chain: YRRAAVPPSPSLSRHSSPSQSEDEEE
# T2: p9CREB, ILSRRPS(p)YR
# T2 chain: ILSRRPSYR
# T3: pIRS-1, RREGGMSRPAS(p)VDG
# T3 chain: RREGGMSRPASVDG
# T4: L803-mts (not fully specified)
# T4 chain: GKEAPPAPPQSP
# B1: GSK-3β F93A mutant (protein)
# chain: MSGRPRTTSFAESCKPVQQPSAFGSMKVSRDKDGSKVTTVVATPGQGPDRPQEVSYTDTKVIGNGSFGVVYQAKLCDSGELVAIKKVLQDKRAKNRELQIMRKLDHCNIVRLRYFFYSSGEKKDEVYLNLVLDYVPETVYRVARHYSRAKQTLPVIYVKLYMYQLFRSLAYIHSFGICHRDIKPQNLLLDPDTAVLKLCDFGSAKQLVRGEPNVSYICSRYYRAPELIFGATDYTSSIDVWSAGCVLAELLLGQPIFPGDSGVDQLVEIIKVLGTPTREQIREMNPNYTEFKFPQIKAHPWTKDSSGTGHFTSGVRVFRPRTPPEAIALCSRLLEYTPTARLTPLEACAHSFFDELRDPNVKLPNGRDTPALFNFTTQELSSNPPLATILIPPHARIQAAASTPTNATAASDANTGDRGQTNNAASASASNST
# B2: GSK-3β D90A mutant (protein)
# chain: B1 chain with D90A, A93F
# B3: wild-type (WT) GSK-3β (protein)
# chain: B1 chain with A93F
# B4: GSK-3β K94A mutant (protein)
# chain: B1 chain with A93F, K94A
# B5: GSK-3β K91A mutant (protein)
# chain: B1 chain with K91A, A93F
# B6: GSK-3β R92A mutant (protein)
# chain: B1 chain with R92A, A93F
# Legend:
# [1] = target: T1, PGS-1, YRRAAVPPSPSLSRHSSPSQS(p)EDEEE
# p9CREB, ILSRRPS(p)YR = target: T2, p9CREB, ILSRRPS(p)YR
# [2] = target: T3, pIRS-1, RREGGMSRPAS(p)VDG
# L803-mts = target: T4, L803-mts
Protein,Substrate phosphorylation (% of WTGSK-3β) (% of WTGSK-3β) [1],"Substrate phosphorylation (% of WTGSK-3β) (% of WTGSK-3β) (p9CREB, ILSRRPS(p)YR)",Substrate phosphorylation (% of WTGSK-3β) (% of WTGSK-3β) [2],"in vitro kinase assays using pIRS-1, p9CREB, and pGS-1 substrate in the presence or absence of L803-mts (100 µM) (L803-mts)"
B1,13,46,42,–
B2,83,92,88,–
B3,–,–,–,L803-mts (SEQ ID NO:5) competes with various substrates
B4,19,71,52,–
B5,119,161,140,–
B6,41,49,60,–
